The data set concerns the target T1, BMC08 (uncultured bacterium (metagenome)).
T1 chain: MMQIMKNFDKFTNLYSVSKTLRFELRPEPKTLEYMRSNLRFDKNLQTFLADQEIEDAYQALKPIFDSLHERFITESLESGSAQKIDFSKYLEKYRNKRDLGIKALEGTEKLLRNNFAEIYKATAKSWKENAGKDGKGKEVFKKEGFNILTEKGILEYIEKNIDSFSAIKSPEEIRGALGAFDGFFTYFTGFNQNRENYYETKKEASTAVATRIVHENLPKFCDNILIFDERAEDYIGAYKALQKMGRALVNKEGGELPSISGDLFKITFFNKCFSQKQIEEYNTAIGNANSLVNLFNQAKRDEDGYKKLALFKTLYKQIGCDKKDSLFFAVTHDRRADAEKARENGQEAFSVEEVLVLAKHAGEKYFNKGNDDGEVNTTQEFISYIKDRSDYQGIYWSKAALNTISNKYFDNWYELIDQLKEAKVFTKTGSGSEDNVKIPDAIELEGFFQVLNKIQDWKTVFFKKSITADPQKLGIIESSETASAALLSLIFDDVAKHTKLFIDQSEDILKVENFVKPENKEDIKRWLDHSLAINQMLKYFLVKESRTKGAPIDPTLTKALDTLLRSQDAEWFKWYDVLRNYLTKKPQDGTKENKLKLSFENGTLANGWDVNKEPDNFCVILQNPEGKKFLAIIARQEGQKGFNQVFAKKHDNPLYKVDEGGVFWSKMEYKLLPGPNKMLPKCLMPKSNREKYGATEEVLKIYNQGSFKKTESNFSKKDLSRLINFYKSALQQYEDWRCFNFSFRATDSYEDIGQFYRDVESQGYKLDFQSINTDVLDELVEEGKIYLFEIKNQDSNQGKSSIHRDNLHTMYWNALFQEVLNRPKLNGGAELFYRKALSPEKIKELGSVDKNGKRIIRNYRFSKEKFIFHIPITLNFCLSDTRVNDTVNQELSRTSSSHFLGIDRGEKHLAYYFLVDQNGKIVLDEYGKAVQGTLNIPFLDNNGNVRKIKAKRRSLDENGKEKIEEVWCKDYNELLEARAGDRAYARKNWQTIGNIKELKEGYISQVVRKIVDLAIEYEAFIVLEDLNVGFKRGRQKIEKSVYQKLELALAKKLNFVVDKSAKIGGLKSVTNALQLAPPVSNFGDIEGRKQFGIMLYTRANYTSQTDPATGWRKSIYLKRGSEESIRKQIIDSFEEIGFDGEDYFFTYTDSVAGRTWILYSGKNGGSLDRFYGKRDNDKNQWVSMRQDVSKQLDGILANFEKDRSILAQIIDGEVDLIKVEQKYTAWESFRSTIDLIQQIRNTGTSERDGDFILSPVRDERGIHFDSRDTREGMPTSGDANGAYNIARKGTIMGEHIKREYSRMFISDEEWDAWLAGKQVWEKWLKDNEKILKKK
Kind of data set: cell_activity; PAM not stated; E. coli depletion, 30 C. On the procedure: Overnight grown pre-cultures were diluted into fresh 60 ml LB-Kanamycin (25 μg/ml) (Example 4) or LB-Kanamycin (25μg/ml)/Nourseothricin (50 μg/ml) medium (Example 5) to obtain an optical density at 600 nm (OD600) of 0.06. The inoculated medium was incubated at 30° C. on a horizontal shaker at 250 rpm until the culture reached an optical density at OD600 of 0.2. For induced BMC (NN) nuclease expression, 600 μl 20% L-(+)-arabinose (w/v) was added to the culture at a final concentration of 0.2% (v/v). The cultivation was continued until the culture reached an optical density at OD600 of 0.5. Subsequently 50 ml culture was transferred into one 50 ml conical tube and harvested by centrifugation at 4° C. for 5 min and 4000×g. Pelleted cells were resuspended in 50 ml ultrapure water (ice-cold) and centrifuged at 4° C. for 5 min and 4000×g.
This washing procedure was repeated twice. Washed cells were resuspended in 25 ml 10% (w/w) glycerin and re-centrifuged at 4° C. for 5 min and 4000×g. The pelleted cells were resuspended in 5 ml 10% (w/w) glycerin. After the final centrifugation step at 4° C. for 5 min and 4000×g, the cells were resuspended in 125 μl 10% (w/w) glycerin. Aliquots of 25 μl competent cells were stored at −80° C. until use. For the transformation procedure, aliquots of competent cells were thawed on ice and 50-100 ng plasmid DNA (CRISPR/gRNA-Ec) was added. Prepared cells were electroporated at 1800 V, 25 μF and 200 Ω in 1 mm gap size electroporation cuvettes, using the Bio-Rad Gene Pulser Xcell Electroporation System. Subsequently, 975 μL of NEB® 10-beta/Stable Outgrowth Medium was added immediately after the pulse to the transformed cells. Regeneration was done at 30° C. on a horizontal shaker at 250 rpm. Finally, 25-100 μl of the cell suspension was plated onto selective M9-Glucose agar plates supplemented with Kanamycin (25 μg/ml)/Ampicillin (100 μg/ml) (Example 4) or Kanamycin (25 μg/ml)/Ampicillin (100 μg/ml)/Nourseothrin (50 μg/ml) (Example 5). Growth of transformed E. coli cells on selective agar plates was screened for 48 h at 30° C.
As described above, each of the BMC01, BMC02, BMC03, BMC04, BMC05, BMC07, BMC08, BMC09, BMC10, BMC11, BMC12, BMC13, BMC14, or BMC15 nucleases was co-transformed into E. coli with a gRNA targeting the E. coli malQ gene to visualize a) the activity and b) the DNA targeting efficiency of the BMC nucleases.

A value given as a limit tells only on which side of the number the result lay.

B1: malQ gRNA (BMC stem-loop + 24 nt spacer) ; malQ protospacer (ssRNA ; dsDNA)
RNA: GAUUUCUACUAUUGUAGAUGUGGCGGUACGUUGAUGCAUCGCG
DNA 1: GTGGCGGTACGTTGATGCATCGCG
DNA 2: CGCGATGCATCAACGTACCGCCAC
Molecule B1 came in with an activity of over 99.9 % colony reduction.

The record behind these values is patent publication US20250277199, “NOVEL CRISPR-CAS NUCLEASES FROM METAGENOMES” (Brain Biotech AG, published 2025).
